Assay results: patent publication US20110136737A1
Read-outs that look alike come from different tables or passages of the source.

T1: human GIP receptor (human), P48546
T1 chain: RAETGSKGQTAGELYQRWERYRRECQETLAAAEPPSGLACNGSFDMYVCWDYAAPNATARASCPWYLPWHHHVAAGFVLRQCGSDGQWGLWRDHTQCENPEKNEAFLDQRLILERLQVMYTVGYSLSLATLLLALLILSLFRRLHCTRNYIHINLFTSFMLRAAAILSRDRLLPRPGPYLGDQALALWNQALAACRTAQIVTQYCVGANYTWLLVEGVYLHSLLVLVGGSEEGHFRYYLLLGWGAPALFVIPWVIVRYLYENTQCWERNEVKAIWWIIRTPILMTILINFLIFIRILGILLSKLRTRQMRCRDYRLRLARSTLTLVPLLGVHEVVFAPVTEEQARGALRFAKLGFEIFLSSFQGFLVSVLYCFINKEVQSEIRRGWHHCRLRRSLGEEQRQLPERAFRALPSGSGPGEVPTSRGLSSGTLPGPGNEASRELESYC

T2: GIP receptor (GIP RBA, RIN), P43219
T2 chain: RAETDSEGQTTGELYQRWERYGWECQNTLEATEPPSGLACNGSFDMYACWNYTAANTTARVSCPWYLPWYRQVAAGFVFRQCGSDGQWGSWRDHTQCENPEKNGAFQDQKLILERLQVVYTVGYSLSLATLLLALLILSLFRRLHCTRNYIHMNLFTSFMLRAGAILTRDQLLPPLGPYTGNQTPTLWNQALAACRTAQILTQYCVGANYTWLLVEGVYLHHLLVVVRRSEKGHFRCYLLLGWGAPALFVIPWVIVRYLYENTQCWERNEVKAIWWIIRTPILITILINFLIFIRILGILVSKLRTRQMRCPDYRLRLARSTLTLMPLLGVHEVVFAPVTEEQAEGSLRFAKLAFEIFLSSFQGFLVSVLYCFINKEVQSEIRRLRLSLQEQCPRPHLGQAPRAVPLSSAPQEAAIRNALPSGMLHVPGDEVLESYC


How the values were obtained:
[1] = molecular target: T1, human GIP receptor (human), P48546; experiment: 125I-GIP displacement by 10 nM analog, HEK-GIPR membranes
[2] = molecular target: T2, GIP receptor (GIP RBA, RIN), P43219; experiment: cell-based or functional assay
[3] = molecular target: T2, GIP receptor (GIP RBA, RIN), P43219; experiment: cell-based or functional assay

| Binder | % Inh at 10 nM [1] | other results |
| --- | --- | --- |
| YAEGTFISDYSIALDKIHQQDFVNWLLAQKPKKIRYS (modifications not checked) [0601GIP4807] | 96.1% |  |
| HAEGTFISDYSIAMDKIHQQDFVNWLLAQKPKKIRYS (modifications not checked) [0601GIP4840] | 44.1% |  |
| HGEGTFISDYSIALDKIRQQEFVNWLLAQKPKKIRYS (modifications not checked) [0601GIP4842] | 40.8% |  |
| YAEGTFISDYSIAMDKIHQQDFVNWLLAQKPKKIRYA (modifications not checked) [0601GIP4819] | 80.4% |  |
| YAEGTFISDYSIALDKIRQQDFVEWLLAQKPKKIRYS (modifications not checked) [0601GIP4540] | 92.2% |  |
| YAEGTFISDYSIAMDKIHQQDFVNWLLAQKPKKLKPS (modifications not checked) [0601GIP4822] | 95.4% |  |
| YAEGTFISDYSIAMDKIHQQDFVNPLLAQKPKKIRYS (modifications not checked) [0601GIP4770] | 10.8% |  |
| YAEGTFISDYSIAMDKIHQQDFVNWLLAQKPAKIRYS (modifications not checked) [0601GIP4815] | 89% |  |
| YAEGTFISDYSIAMDKIHQQDFVNWLEAQKPKKIRYS (modifications not checked) [0601GIP4771] | 17.8% |  |
| YSEGTFISDYSIAMDKIHQQDFVNWLLAQKPKKIRYS (modifications not checked) [0601GIP4538] | 94.2% |  |
| YAEGTFISDYSIAMDKIHQQDFVNWLLAQKPKSARPS (modifications not checked) [0601GIP4821] | 93.5% |  |
| YAEGTFISDYSIAMDKIHQQDFVPWLLAQKPKKIRYS (modifications not checked) [0601GIP4768] | 17.9% |  |
| HGEGTFISDYSIALDKIAQQEFVNWLLAQKPKKIRYS (modifications not checked) [0601GIP4841] | 56.6% |  |
| HGEGTFISDYSIAMDKIHQQDFVNWLLAQKPKKIRYS (modifications not checked) [0601GIP4839] | 23.9% |  |
| YAEGTFISDYSIAMDKIHQQDFVNWLLAQKPKAIRYS (modifications not checked) [0601GIP4816] | 87.3% |  |
| YAEGTFISDYSIAMDKIHQQDFVNELLAQKPKKIRYS (modifications not checked) [0601GIP4769] | 42.8% |  |
| YAEGTFISDYSIAMDKIHQQDFVNWLLAQKPKKIRYS (modifications not checked) [0601GIP4233] | 89% |  |
| YAEGTFISDYSIALDKIRQQEFVNWLLAQKPKKIRYS (modifications not checked) [0601GIP4539] | 98.7% |  |
| YAEGTFISDYSIAMDKIHQQDFVNWLLAQKPKKIRYS (modifications not checked) [0601GIP4762] | 79.1% |  |

| Binder | % Inh at 10 nM [1] | other results |
| --- | --- | --- |
| YAEGTFISDYSIALDKIAQQEFVNWLLAQKPKKIRYS (modifications not checked) [0601GIP4631] | 79% |  |
| YADGTFISDYSIAMDKIHQQDFVNWLLAQKPKKIRYS (modifications not checked) [0601GIP4390] | 90.3% |  |
| YAEGTFISDYSIAMDKIHQQDFVNWLLAQKAKKIRYS (modifications not checked) [0601GIP4814] | 88% |  |
| YSDGTFISDYSIAMDKIHQQDFVNWLLAQKPKKIRYS (modifications not checked) [0601GIP4386] | 93.6% |  |
| YAEGTFISDYSIAMDKIHQQDFVNWLLAQKPKGKGKS (modifications not checked) [0601GIP4700] | 86.6% |  |
| YAEGTFISEYSIAMDKIHQQDFVNWLLAQKPSSGAPPPS (modifications not checked) [0601GIP4151] |  | Cyclase [2]: 10000 |
| YAEGTFISDYSIAMDKIHQQDFVNWLLAQAPSSGAPPPS (modifications not checked) [0601GIP4165] |  | Cyclase [2]: 40 |
| YAEGTFISDYSIAMDKIHQQDFVNWLLAQKPSPKKIRYS (modifications not checked) [0601GIP4823] | 94.1% |  |
| YAEGTFISDYSIAMDKIHQQDFVNWLLAQKGFVLWKGIQ (modifications not checked) [0601GIP4619] | 84.6% |  |
| YAEGTFISDYSIAMDKIHQQDFVNWLLAQKPSKEIIH (modifications not checked) [0601GIP4710] | 79.2% |  |
| YAEGTFISDYSIAMDKIHQQDFVNWLLAQKPSKEIIS (modifications not checked) [0601GIP4765] | 67% |  |
| YAEGFISDYSIAMDKIHQQDFVNWLLAQKPSPKKIRYS (modifications not checked) [0601GIP4820] | 46% |  |
| LYAEGTFISDYSIAMDKIHQQDFVNWLLAQKPKKIRYS (modifications not checked) [0601GIP4798] | 82.3% |  |
| LYAEGTFISDYSIALDKIAQQEFVNWLLAQKPKKIRYS (modifications not checked) [0601GIP4803] | 89.9% |  |
| IYAEGTFISDYSIAMDKIHQQDFVNWLLAQKPKKIRYS (modifications not checked) [0601GIP4801] | 88.8% |  |
| LYAEGTFISDYSIALDKIAQQEFVNWLLAQKPKKIRYS (modifications not checked) [0601GIP4802] | 87.3% |  |
| GYAEGTFISDYSIAMDKIHQQDFVNWLLAQKPSSGAPPPS (modifications not checked) [0601GIP4178] |  | Cyclase [3]: 36.2; Cyclase [2]: 96 |
| GYAEGTFISDYSIAMDKIRQQDFVNWLLAQKPSSGAPPPS (modifications not checked) [0601GIP4293] |  | Cyclase [3]: 20 |
